# B1: SOAT1 (parent)
# chain: VYYIFERLCAPLFRNIKQEPFSAR
# B2: TRIM55 (parent)
# chain: YLPTRGGTTMASGGRFRCPSCRHE
# Variants of: B1
# Experiment: protein stability index of a GFP-peptide fusion (GPS, HEK-293T) (PSI 1-6); higher = more stable
# Conditions: c terminus: a fixed tail appended
# 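Further: lentivirally expressed fusions sorted by FACS into six bins by GFP to DsRed ratio, PSI derived from sequencing read proportions per bin multiplied by bin number.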
row,Variant,protein stability index
1,NYYIFERLCAPLFRNIKQEPFSAR,2.22
2,QYYIFERLCAPLFRNIKQEPFSAR,1.32
3,MYYIFERLCAPLFRNIKQEPFSAR,2.28
4,AYYIFERLCAPLFRNIKQEPFSAR,1.74
5,LYYIFERLCAPLFRNIKQEPFSAR,2.5
6,IYYIFERLCAPLFRNIKQEPFSAR,1.82
7,EYYIFERLCAPLFRNIKQEPFSAR,1.3
8,PYYIFERLCAPLFRNIKQEPFSAR,1.32
9,RYYIFERLCAPLFRNIKQEPFSAR,2.24
10,KYYIFERLCAPLFRNIKQEPFSAR,1.55
11,FYYIFERLCAPLFRNIKQEPFSAR,2.17
12,DYYIFERLCAPLFRNIKQEPFSAR,1.44
13,HYYIFERLCAPLFRNIKQEPFSAR,1.41
14,SYYIFERLCAPLFRNIKQEPFSAR,2.13
15,CYYIFERLCAPLFRNIKQEPFSAR,1.17
16,GYYIFERLCAPLFRNIKQEPFSAR,1.7
17,VGYIFERLCAPLFRNIKQEPFSAR,1.89
18,VIYIFERLCAPLFRNIKQEPFSAR,3.75
19,VEYIFERLCAPLFRNIKQEPFSAR,3.36
20,VAYIFERLCAPLFRNIKQEPFSAR,2.52
21,VHYIFERLCAPLFRNIKQEPFSAR,2.26
22,VKYIFERLCAPLFRNIKQEPFSAR,1.5
23,VNYIFERLCAPLFRNIKQEPFSAR,1.76
24,VMYIFERLCAPLFRNIKQEPFSAR,2.83
25,VFYIFERLCAPLFRNIKQEPFSAR,2.86
26,VCYIFERLCAPLFRNIKQEPFSAR,1.3

# Variants of: B2
# Experiment: as above
# Conditions: c terminus: a fixed tail appended
row,Variant,protein stability index
1,YLPTRNGTTMASGGRFRCPSCRHE,1.21
2,YLPTREGTTMASGGRFRCPSCRHE,1.67
3,YLPTRWGTTMASGGRFRCPSCRHE,1.46
4,YLPTRYGTTMASGGRFRCPSCRHE,1.37
5,YLPTRSGTTMASGGRFRCPSCRHE,1.97
6,YLPTRDGTTMASGGRFRCPSCRHE,2.45
7,YLPTRPGTTMASGGRFRCPSCRHE,1.78
8,YLPTRQGTTMASGGRFRCPSCRHE,2.15
9,YLPTRGGTTMASGGRFRCISCRHE,1.38
10,YLPTRGGTTMASGGRFRCWSCRHE,3.12
11,YLPTRGGTTMASGGRFRCVSCRHE,1.78
12,YLPTRGGTTMASGGRFRCYSCRHE,2
13,YLPTRGGTTMASGGRFRCDSCRHE,3.35
14,YLPTRGGTTMASGGRFRCMSCRHE,1.61
15,YLPSRGGTTMASGGRFRCPSCRHE,2.1
16,YLPPRGGTTMASGGRFRCPSCRHE,1.36
17,YLPERGGTTMASGGRFRCPSCRHE,3.35
18,YLPYRGGTTMASGGRFRCPSCRHE,1.24
19,YLPHRGGTTMASGGRFRCPSCRHE,1.19
20,YLPVRGGTTMASGGRFRCPSCRHE,4.07
21,YLPTRGGTTMASGGRFRLPSCRHE,3.47
22,YLPTRGGTTMASGGRFRGPSCRHE,3.27
23,YLPTRGGTTMASGGRFREPSCRHE,2.98
24,YLPTRGGTTMASGGRFRNPSCRHE,3.15

row,Variant,protein stability index
1,YLPTRGGTTMASGGRFRTPSCRHE,3.74
2,YLPTRGGTTMASGGRFRVPSCRHE,2.71
3,YLPTRGGTTMASGGRFRWPSCRHE,1.7
4,YLPTRGGTTMASGGRFRSPSCRHE,3.61
5,YLPTRGGTTMASGGRFRCPSCRVE,2
6,YLPTRGGTTMASGGRFRCPSCRCE,3.34
7,YLPTRGGTTMASGGRFRCPSCRSE,3.03
8,YLPTRGGTTMASGGRFRCPSLRHE,2.86
9,YLPTRGGTTMASGGRFRCPSWRHE,2.21
10,YLPTRGGTTMASGGRFRCPSNRHE,3.96
11,YLPTRGGTTMASGGRFRCPSIRHE,3.09
12,YLPTRGGTTMASGGRFRCPSARHE,3.98
13,YLPTRGGTTMASGGRFRCPSMRHE,2.51
14,YLPTRGGTTMASGGRFRCPSDRHE,3.62
15,YLPTRGGTTMASGGRFRCPPCRHE,2.39
16,YLPTRGGTTMASGGRFRCPTCRHE,2.48
17,YLPTRGGTTMASGGRFRCPWCRHE,1.12
18,YLPTRGGTTMASGGRFRCPDCRHE,1.98
19,YLPTRGGTTMASGGRFRCPGCRHE,1.92
20,YLPTRGGTTMASGGRFRCPKCRHE,2.27
21,YLPTRGGTTMASGGRFRCPRCRHE,2.04
22,YLPTRGQTTMASGGRFRCPSCRHE,2.24
23,YLPTRGTTTMASGGRFRCPSCRHE,2.33
24,YLPTRGETTMASGGRFRCPSCRHE,1.75

row,Variant,protein stability index
1,YLPTRGRTTMASGGRFRCPSCRHE,1.12
2,YLPTRGVTTMASGGRFRCPSCRHE,1.37
3,YLPTRGKTTMASGGRFRCPSCRHE,1.01
4,YLPTRGGTTWASGGRFRCPSCRHE,2.58
5,YLPTRGGTTCASGGRFRCPSCRHE,2.91
6,YLPTRGGTTQASGGRFRCPSCRHE,2.03
7,YLPTRGGTTAASGGRFRCPSCRHE,2.85
8,YLPTRGGTTIASGGRFRCPSCRHE,2.27
9,YLPTRGGTTKASGGRFRCPSCRHE,1.11
10,YLPTRGGTTGASGGRFRCPSCRHE,2.61
11,YLPTRGGTTYASGGRFRCPSCRHE,1.89
12,YLPTRGGTTMASGGRTRCPSCRHE,2.98
13,YLPTRGGTTMASGGRKRCPSCRHE,2.01
14,YLPTRGGTTMASGGRCRCPSCRHE,3.06
15,YEPTRGGTTMASGGRFRCPSCRHE,2.98
16,YMPTRGGTTMASGGRFRCPSCRHE,1.93
17,YTPTRGGTTMASGGRFRCPSCRHE,1.38
18,YQPTRGGTTMASGGRFRCPSCRHE,1.02
19,YIPTRGGTTMASGGRFRCPSCRHE,2.22
20,YHPTRGGTTMASGGRFRCPSCRHE,2.78
21,YFPTRGGTTMASGGRFRCPSCRHE,2.46
22,YLPTRGGTTMACGGRFRCPSCRHE,1.41
23,YLPTRGGTTMAHGGRFRCPSCRHE,2.29
24,YLPTRGGTTMAEGGRFRCPSCRHE,2.09

row,Variant,protein stability index
1,YLPTRGGTTMAAGGRFRCPSCRHE,1.87
2,YLPTRGGTTMAIGGRFRCPSCRHE,2.18
3,YLPTRGGTTMATGGRFRCPSCRHE,1.49
4,YLPTRGGTTMAMGGRFRCPSCRHE,1.76
5,YLPTRGGTTMAYGGRFRCPSCRHE,1.28
6,YLPTRGGTTMAVGGRFRCPSCRHE,2.42
7,YLPTRGGTTMAGGGRFRCPSCRHE,2.1
8,YLPTRGGTTMASGGRFRCPSCRHM,1.6
9,YLPTRGGTTMASGGRFRCPSCRHH,1.47
10,YLPTRGGTTMASGGRFRCPSCRHS,1.53
11,YLPTRGGTTMASGGRFRCPSCRHK,2.04
12,YLPTRGGTTMASGGRFRCPSCRHY,2.55
13,YLPTRGGTTMASNGRFRCPSCRHE,1.89
14,YLPTRGGTTMASHGRFRCPSCRHE,2.62
15,YLPTRGGTTMASFGRFRCPSCRHE,2.39
16,YLPTRGGTTMASIGRFRCPSCRHE,1.33
17,YLPTRGGTTMASWGRFRCPSCRHE,1.12
18,YLPTRGGTTMASKGRFRCPSCRHE,1.38
19,YLPTRGGTTMASRGRFRCPSCRHE,1
20,YLPTRGGTTMASTGRFRCPSCRHE,1.88
21,YLPTRGGTTMASAGRFRCPSCRHE,2.47
22,YLPTRGGTTMASMGRFRCPSCRHE,1.96
23,YLPTRGGTTMASGKRFRCPSCRHE,1.83
24,YLPTRGGTTMASGCRFRCPSCRHE,3.76

row,Variant,protein stability index
1,YLPTRGGTTMASGARFRCPSCRHE,2.23
2,YLPTRGGTTMASGMRFRCPSCRHE,2.76
3,YLPTRGGTTMASGYRFRCPSCRHE,1.69
4,YLPTRGGTTMASGTRFRCPSCRHE,2.89
5,HLPTRGGTTMASGGRFRCPSCRHE,2.79
6,LLPTRGGTTMASGGRFRCPSCRHE,2.06
7,KLPTRGGTTMASGGRFRCPSCRHE,1.46
8,GLPTRGGTTMASGGRFRCPSCRHE,3.18
9,SLPTRGGTTMASGGRFRCPSCRHE,3.15
10,ILPTRGGTTMASGGRFRCPSCRHE,2.52
11,NLPTRGGTTMASGGRFRCPSCRHE,3.07
12,MLPTRGGTTMASGGRFRCPSCRHE,1.67
13,QLPTRGGTTMASGGRFRCPSCRHE,2.45
14,CLPTRGGTTMASGGRFRCPSCRHE,2.14
15,YLPTRGGTTMASGGVFRCPSCRHE,1.24
16,YLPTRGGTTMASGGAFRCPSCRHE,2.02
17,YLPTRGGTTMASGGSFRCPSCRHE,1.65
18,YLPTRGGTTMASGGHFRCPSCRHE,1.39
19,YLPTRGGTTMASGGTFRCPSCRHE,2.53
20,YLPTRGGTTMASGGCFRCPSCRHE,2.02
21,YLPTRGGTTMASGGQFRCPSCRHE,1.58
22,YLPTRGGTTMASGGYFRCPSCRHE,1.44
23,YLPTNGGTTMASGGRFRCPSCRHE,1.44
24,YLPTGGGTTMASGGRFRCPSCRHE,2

row,Variant,protein stability index
1,YLPTDGGTTMASGGRFRCPSCRHE,1.73
2,YLPTWGGTTMASGGRFRCPSCRHE,3.96
3,YLPTEGGTTMASGGRFRCPSCRHE,2.4
4,YLPTHGGTTMASGGRFRCPSCRHE,1.32
5,YLPTIGGTTMASGGRFRCPSCRHE,1.98
6,YLPTVGGTTMASGGRFRCPSCRHE,1.51
7,YLPTQGGTTMASGGRFRCPSCRHE,2.28
8,YLPTRGGTEMASGGRFRCPSCRHE,2.66
9,YLPTRGGTGMASGGRFRCPSCRHE,1.26
10,YLPTRGGHTMASGGRFRCPSCRHE,2.88
11,YLPTRGGDTMASGGRFRCPSCRHE,1.36
12,YLPTRGGRTMASGGRFRCPSCRHE,1.94
13,YLPTRGGSTMASGGRFRCPSCRHE,1.14
14,YLPTRGGVTMASGGRFRCPSCRHE,2.03
15,YLPTRGGMTMASGGRFRCPSCRHE,4.36
16,YLPTRGGYTMASGGRFRCPSCRHE,4.26
17,YLPTRGGNTMASGGRFRCPSCRHE,1.98
18,YLPTRGGATMASGGRFRCPSCRHE,1.11
19,YLPTRGGLTMASGGRFRCPSCRHE,4.11
20,YLLTRGGTTMASGGRFRCPSCRHE,1.32
21,YLDTRGGTTMASGGRFRCPSCRHE,1.04
22,YLITRGGTTMASGGRFRCPSCRHE,1
23,YLRTRGGTTMASGGRFRCPSCRHE,3.49
24,YLPTRGGTTMHSGGRFRCPSCRHE,1.83

row,Variant,protein stability index
1,YLPTRGGTTMRSGGRFRCPSCRHE,1.37
2,YLPTRGGTTMTSGGRFRCPSCRHE,2.46
3,YLPTRGGTTMMSGGRFRCPSCRHE,1.18
4,YLPTRGGTTMQSGGRFRCPSCRHE,1.96
5,YLPTRGGTTMASGGRFTCPSCRHE,2.96
6,YLPTRGGTTMASGGRFLCPSCRHE,2.6
7,YLPTRGGTTMASGGRFCCPSCRHE,1.6
8,YLPTRGGTTMASGGRFRCPSCIHE,2.4
9,YLPTRGGTTMASGGRFRCPSCKHE,2.94
10,YLPTRGGTTMASGGRFRCPSCQHE,2.12
11,YLPTRGGTTMASGGRFRCPSCYHE,2.07
12,YLPTRGGTTMASGGRFRCPSCWHE,2.01
13,YLPTRGGTTMASGGRFRCPSCEHE,4.06
14,YLPTRGGTTMASGGRFRCPSCDHE,2.9
15,YLPTRGGTTMASGGRFRCPSCPHE,3.78
16,YLPTRGGTTMASGGRFRCPSCAHE,2.59
17,YLPTRGGTTMASGGRFRCPSCHHE,2.4
18,YLPTRGGTTMASGGRFRCPSCNHE,2.4

# Reference: the supplement of paper PMC10567573
